These results are taken from PMC8187723.

In general, Kd refers to the equilibrium constant for the complex coming apart.

The assay deals with recombinant human MXRA8-Fc fusion protein (UniProt Q9BRK3). Conditions: 37 °C; n = 2; parent: est. 19; read off a plot.

As for “Ross River virus T48, CPER-recovered wild type, purified virus (E1/E2 envelope glycoproteins on the virion) E2:H64W”, the Kd was determined as 66 nM.
